These results are taken from paper doi:10.1101/2020.09.18.291195 (bioRxiv, 2020).

Series [1] addresses human LI-cadherin EC1-5 (human). Briefly: AUC.
The series “AUC” concerns the molecule itself. Briefly: AUC.

In series [1], “human LI-cadherin EC1-5 (domain or fragment)” yielded a Kd of 22.8 µM and a stoichiometry N of 2.

B1: human LI-cadherin EC1-2 (domain or fragment)
chain: GPLKPMTFSIYEGQEPSQIIFQFKANPPAVTFELTGETDNIFVIEREGLLYYNRALDRETRSTHNLQVAALDANGIIVEGPVPITIKVKDINDNRPTFLQSKYEGSVRQNSRPGKPFLYVNATDLDDPATPNGQLYYQIVIQLPMINNVMYFQINNKTGAISLTREGSQELNPAKNPSYNLVISVKDMGGQSENSFSDTTSVDIIVTE
Turning to B1, in “AUC”, the Kd was found to be 75 µM and the “stoichiometry N” value came out at 2.

B2: human LI-cadherin EC1-4 (domain or fragment)
chain: QEGKFSGPLKPMTFSIYEGQEPSQIIFQFKANPPAVTFELTGETDNIFVIEREGLLYYNRALDRETRSTHNLQVAALDANGIIVEGPVPITIKVKDINDNRPTFLQSKYEGSVRQNSRPGKPFLYVNATDLDDPATPNGQLYYQIVIQLPMINNVMYFQINNKTGAISLTREGSQELNPAKNPSYNLVISVKDMGGQSENSFSDTTSVDIIVTENIWKAPKPVEMVENSTDPHPIKITQVRWNDPGAQYSLVDKEKLPRFPFSIDQEGDIYVTQPLDREEKDAYVFYAVAKDEYGKPLSYPLEIHVKVKDINDNPPTCPSPVTVFEVQENERLGNSIGTLTAHDRDEENTANSFLNYRIVEQTPKLPMDGLFLIQTYAGMLQLAKQSLKKQDTPQYNLTIEVSDKDFKTLCFVQINVID
modifications: N-glycans (four partial N-glycans modelled in chain A and two in chain B of the crystal structure)
As for B2, in “AUC”, the Kd came to 39.8 µM and the “stoichiometry N” value amounted to 2.

What is called Kd is the equilibrium constant for the complex coming apart. In general, stoichiometry N refers to a count of units in the complex or per binding partner.
